The supplement of paper PMC9170038

Test system: MS2 coat protein
Experiment: apparent KD of MS2 coat protein; higher = weaker reporter binding
Conditions: Eterna round: R107
How it was run: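 Designed RNA switches were transcribed on-chip from Illumina sequencing clusters. They were then titrated with SNAP-549-labelled MS2 coat protein (twofold steps, 0.7 or 1.5 nM to 3 µM; 0.8–1.5 h to 10–20 min per step) in 100 mM Tris-HCl pH 7.5, 80 mM KCl, 4 mM MgCl2, without or with constant ligand. Apparent KD is the per-design median of normalised cluster binding-curve fits.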

[1] = input ligand: theophylline 20 uM
[2] = input ligand: tryptophan 2.4 mM
[3] = input ligand: theophylline 2 mM

| Sequence | apparent KD of MS2 coat protein (input ligand: arginine 13.2 mM) [nM] | apparent KD of MS2 coat protein [1] [nM] | apparent KD of MS2 coat protein [2] [nM] | apparent KD of MS2 coat protein [3] [nM] | apparent KD of MS2 coat protein (input ligand: none) [nM] |
| --- | --- | --- | --- | --- | --- |
| UGCACCAUAAUCAUGUUGGUGCUAGGUGAUACCAGCAUCGAAAGAUGCCCUUGGCAGCACCAACAUGAGGAUCACCCAUGUAAUA [(MT)''-(M)'-(T')-(Theo)-(Ms2)_Design1/22_3] | 60.1 | 351 | 57.9 |  |  |
| GUGUUUGUGUGAGAUACCAGUGAGGCCACAUGAGGAUCACCCAUGUCCCUCACUCCGGCCCACCCUUGGCAGCUCUUAUAGUAGU [Exclusion Theophylline B GF 23] | 9.34 | 13.3 | 9.83 |  |  |
| GGUUACUCUACGGCCGCCACUGUAAAGUAAAGAUUACUGUACAUGACAUGAGGAUCACCCAUGUACAGGACCGGGUAGUGUAACC [Tryptophan B 15] | 32.2 | 46.3 |  | 35.5 |  |
| GGGCCUAUCUGAAGGAGCGACAUGAGGAUCACCCAUGUCUCCCGUUAUGGGAGUUCUUUAGGUCAGGUAGGUCGCAGGUAGGGCC [#1 Exclusion - Arginine B Attempt #5 (Inspired by Omei)] | 12.2 | 19 | 15 | 15.2 | 14.7 |
| GGACUAACCUGAAGGAGCGGCGCGCAGAAACUGCAAAUUCCUCCACACGAGGAUCACCCGUGUCAGGUAGGUCGCAGGUUAGUCG [ArgBX 28] | 11.5 | 16.6 | 12.7 | 12.6 | 12.1 |
| GGCACGUACGGAAGGAGCGACUGUUCAACGUGGGUACAUGAGGAUCACCCAUGUCUCCGCAGUCAGGUAGGUCGCCGUACGUGCC [EAB NP+V+V2 #20] | 15 | 19.8 | 10.7 | 13.2 | 12.2 |
| GGACUAACCAGAAGGAGCGACACAAGCAGAAACUGCAAUCCUCCGCACGAGGAUCACCCGUGUCAGGUAGGUCGCUGGUUAGUCG [ArgBX 28] | 57.5 | 96.8 | 67.4 | 96.8 | 63.7 |
| AUGACUAACAAAGAAGAUAAAAUGGGUGAACGAGGACCGGUACGGCCGCCACUCGGACAUGAGGAUCACCCAUGUCCAUGUGCAA [#23 Exclusion Tryptophan A] | 15.6 | 21.7 |  | 20.4 |  |
| ACAUGAGGAUCACCCAUGUGGCGUCUUGAUACCAGACCCGCACUAGUCCCUUGGCAGCAACUACGUGAGGGUCGCCCAUGUGUAG [zxdullin] | 32.4 | 50.8 | 34.4 |  |  |
| UUGGGUUUGUGAAGGAGCGGGAAAGUUUUAUAGUGAAUCCUAACAUGAGGAUCACCCAUGUCCCAGGUAGGUCGCGCGGGUUUGG [12.Q] | 240 | 115 | 80.8 | 144 | 134 |
| UUUUAGCAUCGAAGGAGCGCUGGUGAAACUGACUAUGGAACAUGAGGAUCACCCAUGUGCUAGCAGGUAGGUCGCGAUGCUAUUU [SSAB NP+V+V2 #10] | 16.9 | 20.7 | 14.9 | 18.1 | 17.6 |
| UGUAUGUGAUGUGAUACCAGUCCAAUACUGGUAACAUGAGGAUCACCCAUGUAAUGAUGGGACCCUUGGCAGCACAUCGCAUACU [ThBS] | 175 | 347 | 242 |  |  |
| UUCAGCUAGUCGGCCGCCACUACCUGAGGAUCACCCUGGUAGGUCCACACUGCUUCGGCAGUGAGUAGGACCGGGACUAGCUGAG | 18.3 | 25.2 | 52.7 | 19 | 23.2 |
| AAUAUAUAGACGGCCGCCACUGGAAUUAAUACAUGAGGAUCACCCAUGUGAAGAGGAUAAUAACACAGGACCGGGUCUUCAUGUA [SS Tryp B Tesla 1.2] | 68.5 | 137 | 138 | 452 | 37.4 |
| UUGGUACGACAGCUCAUAUAAGCAUGUGAUACCAGACUGGAAACAGUCCCUUGGCAGCACUUUACAUGAGGAUCACCCAUGUCGG [EThA NP+V+V2 #3 +-Same Structure] | 76.6 | 201 | 212 |  |  |
| CUCGUCAACUCGGCCGCCACUGACGUGUGGUCAGGCCUGUAGAAACACAUGAGGAUCACCCAUGUCAGGACCGGGAGCUUUAUUA [theeternabot_exclusion_MS2_Trp_B_26] | 31.8 | 73.5 |  | 61.6 |  |
| UGAUACCAGUCGGCCGCCACUAUGCUAGAUACUAGCAAUAAAGGGCGACAUGAGGAUCACCCAUGUAGGACCGGGACUGGUAUCU |  | 14.1 |  | 12 |  |
| GUAUAUUAUAGAAGGAGCGUCGAAAAUGGGUAAACAUGAGGAUCACCCAUGUAAAGGGAACGACAGGUAGGUCGCUAUAAUAUAC [AstromonsSSArgB#14] | 154 | 233 | 220 | 311 | 218 |
| CAAACAUGAGGAUCACCCAUGUAAUCAGAUACCAGUGACGAAAGUCACCCUUGGCAGCUGAUUACUUUAGUUCUAAGGUGUUUGA [EThA NP+V+V2 #5 +-Same Structure] | 53.6 | 116 | 38.7 |  |  |
| AGCGGCUCGAAAGAGUCGCACUCAUGUGAAGGAGCGCCCGUAAGGGCAGGUAGGUCGCACAUGAGGAUCACCCAUGUACCUUCUA [MAT - Exclusion Arginine A - Mod of Eli - D20] | 87.1 | 255 | 241 | 316 | 205 |

| Sequence | apparent KD of MS2 coat protein (input ligand: arginine 13.2 mM) [nM] | apparent KD of MS2 coat protein [1] [nM] | apparent KD of MS2 coat protein [2] [nM] | apparent KD of MS2 coat protein [3] [nM] | apparent KD of MS2 coat protein (input ligand: none) [nM] |
| --- | --- | --- | --- | --- | --- |
| CCUAUGCAGUCGGCCGCCACUGAACAUGAGGAUCACCCAUGUAAUUAAAAUUAAGAUCCUGAAAUCAGGACCGGGACUGUAUAGG [Ex Tryptophan B 4] | 25.5 | 280 | 196 | 140 | 1520 |
| AGCGACAUGCGUGAUACCAGCUACAUGAGGAUCACCCAUGUGAGUAGGAAACUACUGUGUAGCCCUUGGCAGCACAGUGCAUGUC [Exclusion - Theophylline B (Freestyle 25)] | 11.4 | 15.9 | 10.3 |  |  |
| UGGCAAGAGGGAAGGAGCGUCAGCUGAGUCACAUGAGGAUCACCCAUGUCGCACAUAGUGUGACAGGUAGGUCGCCCUCUGCCGU [Vesosocera] | 70 | 152 | 122 | 207 | 122 |
| GCUGCUUAGGGAAGGAGCGCUGCGGAAUUGUGGAGGACAUGAGGAUCACCCAUGUUCCUGCGGCAGGUAGGUCGCUUUGGGCAGC [#17 Exclusion - Arginine B] | 32.8 | 48.1 | 45.3 | 60.5 | 40.3 |
| CAAUAUAUAUGAAGGAGCGACAUGAGGAUCACCCAUGUCUACCACGUCGAAAGACGCUCAUGUCAGGUAGGUCGCAUAUAUAUUG [Astros-Eli-mod4] | 71.9 | 129 | 90.9 | 144 | 102 |
| UGACAUUGCUCAGAUACCAGACAUGAGCAUCAGCCAUGUACCGAGAGUACAUGUUAAAGUGUCCCUUGGCAGCUGAGCAAUGUCU [Mod of Eli's TheoBX5 #AlternateMS2 v4] | 116 | 640 | 404 | 371 | 328 |
| GGCGCUGCGUCGGCCGCCACUAGUGGGUAAUGGGUGUACAUGAGGAUCACCCAUGUAUUUUGGCCUAGGACCGGGACGUGGCGCC [Oxen] | 81.9 | 455 |  | 570 |  |
| CACAUGAGGAUCACCCAUGUCUGAACUGAAGGAGCGCUAAAUAAGGCAGGUAGGUCGCGGAAUCUUGUGUGCAUAUGCACACGGG [9.T] | 18.2 | 28.5 | 25 | 31.2 | 20.5 |
| AAAGCUACGUAAAAUAAAACUACAUGUGAAGGAGCGCGCGAAAGCGCAGGUAGGUCGCACAUGAGGAUCACCCAUGUCGUAGCAA [MAT - Exclusion Arginine A - Mod of Eli - D5] | 43.9 | 101 | 52.2 | 78.2 | 63.4 |
| UACAUGAGGAUCACCCAUGUAUUGCCGGUACGAGGACCGGUACGGCCGCCACUCGGGACAUGAGGAUCACCCAUGUGCUGCUAUU [Same State Trypophan A GF 23] | 28.7 | 49.8 | 45.8 | 42.4 | 44.4 |
| UGUAUGUGAUCUGAUACCAGUCCAACUGGUAAAGCAUGAGGAACACCCAUGCAAAAUUGGGACCCUUGGCAGCAGAUCGCAUACU | 169 | 255 | 278 | 34.6 | 247 |
| CGUAUUGGAAACAGUACGAGUGAUCCGGUCCGAGGACCGGUACGGCCGCCACUCGAAAUUAAUAAACAUGAGGAUCACCCAUGUA [Ex Tryptophan A 10] | 14.8 | 19.6 |  | 20.2 |  |
| UUCAUGAGGAUUGAUACCAGCCACCAACAUGAGGAACUUACAUGAGGAUCACCCAUGUGAGGCCCUUGGCAGCAAGCAUACAUGA [Exclusion Theophylline B 3] | 10.1 | 16.7 | 11.5 | 48.5 | 10.6 |
| GGUUGGUGUAGAGAUAUAUUGAUUACUGAAGGAGCGGGACGAAACCCAGGUAGGUCGCAGAGAUCCACAUGAGGAUCACCCAUGU [!0.M] | 31.6 | 46.6 | 33.4 | 61.4 | 46.1 |
| CUCUGAGUGAGAAAUCACUCAGAGGCGGAUACCAGCGAGGUCCAUCGCCCUUGGCAGCCGAACAUGAGGAUCACCCAUGUCGGUA [#1 Same State - Theophylline A Attempt #21 (HarryS)] | 9.9 | 14 | 9.34 | 14.5 | 10.8 |
| UUACCGUAAGGUAUACCGGUCCACAAUAAUCGAGGACCGGUACGGCCGCCACUCGAUGUGUGAUCACAUGAGGAUCACCCAUGUA [Tryptophan A 20] | 99.4 | 460 |  | 562 |  |
| CUCCCGUGGUCGGCCGCCACUGGAGGCCUCGCGCGACAUGAGGAUCACCCAUGUUGGCCCGGCCUCAGGACCGGGAUCGCGUGAG [#1 Same State - Tryptophan B Attempt #7 (HarryS)] | 11.2 | 17.9 | 10.9 | 11.9 | 13.7 |
| UCCUCCUCCGCAAGGAGGAGGAGUUGCGAUACCAGCCCGGAAACGGGCCCUUGGCAGCGCACAUGAGGAUCACCCAUGUCAUGUU [#1 Exclusion - Theophylline A Attempt #8 (HarryS)] | 14.6 | 19.8 | 18 | 30.6 | 18.1 |
| UCAUGCAGGUCGGCCGCCACUACACACAUGAGGAUCACCCAUGUAGUUACUGGGUGAAGUGGCAGUAGGACCGGGACCUGCACAC [Brourdmod17] | 155 | 632 | 1090 | 849 | 504 |
